Starred links: 1 amine or outer side, 2 acyl side, 3 side chain; linkers in the order of their positions; H or OH if unused. Positions of bridges follow the written chain, without caps; N, C: chain ends. Non-standard residues stand in square brackets, D forms with d. Primed or numbered codes have the meaning given here. PyrS2″ = (S)-3-amino-1-((pent-4-en-1-yloxy)carbonyl)pyrrolidine-3-carboxylic acid (stapling residue), C=CCCCOC(=O)N1CC[C@@](N[*:1])(C(=O)[*:2])C1; B5(17) = 2,2-bis(4-pentenyl)glycine = 2-amino-2-(pent-4-en-1-yl)hept-6-enoic acid, stitching residue, C=CCCCC(CCCC=C)(N[*:1])C(=O)[*:2]; B5(4) = 2,2-bis(4-pentenyl)glycine = 2-amino-2-(pent-4-en-1-yl)hept-6-enoic acid (stitching residue), C=CCCCC(CCCC=C)(N[*:1])C(=O)[*:2]; B5(3) = 2,2-bis(4-pentenyl)glycine (stitching residue), C=CCCCC(CCCC=C)(N[*:1])C(=O)[*:2]; Phe(3-COOH) = N[C@@H](Cc1cccc(C(=O)O)c1)C(=O)O; Phe(2-CF3) = N[C@@H](Cc1ccccc1C(F)(F)F)C(=O)O; Phe(3,4-F2) = N[C@@H](Cc1ccc(F)c(F)c1)C(=O)O; Phe(3-F) = N[C@@H](Cc1cccc(F)c1)C(=O)O; Phe(4-F) = N[C@@H](Cc1ccc(F)cc1)C(=O)O; 1Nal = N[C@@H](Cc1cccc2ccccc12)C(=O)O; αAllylPro = C=CC[C@@]1(C(=O)O)CCCN1; tBuAla = CC(C)(C)C[C@H](N)C(=O)O; 2Pal = N[C@@H](Cc1ccccn1)C(=O)O; 3Pal = N[C@@H](Cc1cccnc1)C(=O)O; S8 = C=CCCCCCC[C@](C)(N)C(=O)O
Each binder was assayed against T1, B-cat-Halo (beta-catenin HaloTag NanoBRET construct expressed in HEK293 cells) (UniProt P35222 1-781) (assay: cell-based or functional assay).
T1 sequence (looked up): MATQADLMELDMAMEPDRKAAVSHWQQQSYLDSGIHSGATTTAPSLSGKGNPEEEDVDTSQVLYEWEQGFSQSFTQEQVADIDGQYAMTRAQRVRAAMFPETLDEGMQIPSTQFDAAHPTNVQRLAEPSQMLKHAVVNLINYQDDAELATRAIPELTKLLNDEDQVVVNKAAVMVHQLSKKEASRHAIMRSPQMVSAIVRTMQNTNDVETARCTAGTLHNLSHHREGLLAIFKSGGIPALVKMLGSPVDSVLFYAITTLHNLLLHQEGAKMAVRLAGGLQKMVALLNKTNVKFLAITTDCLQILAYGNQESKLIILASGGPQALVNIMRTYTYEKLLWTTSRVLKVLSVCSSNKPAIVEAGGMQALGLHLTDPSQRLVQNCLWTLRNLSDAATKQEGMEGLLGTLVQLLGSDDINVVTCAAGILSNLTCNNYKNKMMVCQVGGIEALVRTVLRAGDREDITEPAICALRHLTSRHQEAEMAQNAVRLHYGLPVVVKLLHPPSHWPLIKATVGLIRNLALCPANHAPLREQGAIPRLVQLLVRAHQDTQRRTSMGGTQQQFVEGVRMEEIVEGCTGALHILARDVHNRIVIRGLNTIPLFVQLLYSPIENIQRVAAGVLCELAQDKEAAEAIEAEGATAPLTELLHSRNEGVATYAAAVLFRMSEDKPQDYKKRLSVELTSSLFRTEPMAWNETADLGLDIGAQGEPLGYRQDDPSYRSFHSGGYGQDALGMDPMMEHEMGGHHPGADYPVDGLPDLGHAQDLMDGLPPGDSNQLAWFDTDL

Binder | NanoBRET Abs IC50 [µM]
Ac-[αAllylPro]D[tBuAla][B5(3)]D[Phe(3-COOH)]AAFL[PyrS2″][Phe(2-CF3)][SbMe2NapA]Q-NH2 (staple 1-4, 4-11) [Ac-PL3-Asp-Npg-B5-Asp-3COOHF-Ala-Ala-Phe-Leu-PyrS2-2F3MeF-SbMe2NapA-Gln-NH2] | 16.5
Ac-[αAllylPro]D[tBuAla][B5(3)]D[Phe(3-COOH)]QAFL[PyrS2″][Phe(2-CF3)][RbMe2NapA]A-NH2 (staple 1-4, 4-11) [Ac-PL3-Asp-Npg-B5-Asp-3COOHF-Gln-Ala-Phe-Leu-PyrS2-2F3MeF-RbMe2NapA-Ala-NH2] | 6.5

These binders were tested against T2, beta-catenin, full-length (Uniprot ID P35222) (Homo sapiens (Human), UniProt P35222 2-781) (assay: fluorescence polarization competition, displacement of 5FAM-TCF4 10-53 from full-length beta-catenin).
T2 construct: tags are not described; also called bCat; B-Catenin
T2 sequence: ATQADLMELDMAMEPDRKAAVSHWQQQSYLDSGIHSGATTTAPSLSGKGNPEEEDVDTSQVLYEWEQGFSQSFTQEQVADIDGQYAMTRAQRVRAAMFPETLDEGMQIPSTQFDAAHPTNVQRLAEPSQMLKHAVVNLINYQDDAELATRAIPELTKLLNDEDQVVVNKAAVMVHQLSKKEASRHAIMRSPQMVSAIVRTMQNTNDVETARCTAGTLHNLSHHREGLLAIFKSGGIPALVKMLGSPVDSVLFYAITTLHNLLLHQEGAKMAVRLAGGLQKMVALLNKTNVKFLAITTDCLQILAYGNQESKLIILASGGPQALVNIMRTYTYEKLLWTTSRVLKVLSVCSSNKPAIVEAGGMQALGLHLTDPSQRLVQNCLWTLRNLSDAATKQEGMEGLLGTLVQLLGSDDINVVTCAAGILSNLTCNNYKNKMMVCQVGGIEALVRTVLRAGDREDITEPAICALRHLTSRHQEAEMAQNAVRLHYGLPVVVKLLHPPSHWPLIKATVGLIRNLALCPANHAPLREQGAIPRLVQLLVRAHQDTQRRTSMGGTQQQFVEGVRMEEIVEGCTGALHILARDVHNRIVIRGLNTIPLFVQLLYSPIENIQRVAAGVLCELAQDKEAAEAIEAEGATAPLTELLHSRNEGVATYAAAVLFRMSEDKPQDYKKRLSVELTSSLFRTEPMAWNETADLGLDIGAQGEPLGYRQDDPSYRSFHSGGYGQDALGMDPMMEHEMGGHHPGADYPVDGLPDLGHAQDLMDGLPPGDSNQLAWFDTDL
Protocol: The plate was incubated protected from light for 60 minutes at 20° C. prior to read. Reads were performed on a CLARIOstar plate reader (BMG Labtech) in duplicate, and data were fitted to a 1:1 binding model with hill slope using an in-house script. All provided concentrations are final concentrations.

Binder | IC50 [µM]
Ac-[αAllylPro]DA[B5(17)]DDAA[Phe(3,4-F2)]V[S8]FWQ-NH2 (staple 1-4, 4-11, Stapled (stitched) peptide) [I-267: Ac-PL3-Asp-Ala-B5-Asp-Asp-Ala-Ala-34FF-Val-S8-Phe-Trp-Gln-NH2] | 5
XDAXDDAAFVXFW (not fully specified; N-terminal Ac; PL3 at 1, B5 at 4, S8 at 11 (olefin-metathesis staples 1-4 and 4-11); C-terminal amide, Stapled (stitched) peptide) [I-290: Ac-PL3-Asp-Ala-B5-Asp-Asp-Ala-Ala-Phe-Val-S8-Phe-Trp-NH2] | 3.29
Ac-[αAllylPro]DA[B5(17)]D[2Pal]AAFV[S8]FWQ-NH2 (staple 1-4, 4-11, Stapled (stitched) peptide) [I-270: Ac-PL3-Asp-Ala-B5-Asp-2PyrA-Ala-Ala-Phe-Val-S8-Phe-Trp-Gln-NH2] | 5
Ac-[αAllylPro]DA[B5(17)]DDAA[Phe(4-F)]V[S8]FWQ-NH2 (staple 1-4, 4-11, Stapled (stitched) peptide) [I-266: Ac-PL3-Asp-Ala-B5-Asp-Asp-Ala-Ala-4FF-Val-S8-Phe-Trp-Gln-NH2] | 5
Ac-[αAllylPro]DA[B5(4)]DDAAFV[S8][1Nal]WQ-NH2 (staple 1-4, 4-11; also: earlier-eluting HPLC staple isomer, Stapled (stitched) peptide) [I-275: Ac-PL3-Asp-Ala-B5-Asp-Asp-Ala-Ala-Phe-Val-S8-1NapA-Trp-Gln-NH2] | 5
XDAXDDAAFVXFW (not fully specified; N-terminal Ac; PL3 at 1, B5 at 4, S8 at 11 (olefin-metathesis staples 1-4 and 4-11); C-terminal amide, Stapled (stitched) peptide) [I-289: Ac-PL3-Asp-Ala-B5-Asp-Asp-Ala-Ala-Phe-Val-S8-Phe-Trp-NH2] | 5
Ac-[αAllylPro]DA[B5(17)]D[3Pal]AAFV[S8]FWQ-NH2 (staple 1-4, 4-11, Stapled (stitched) peptide) [I-271: Ac-PL3-Asp-Ala-B5-Asp-3PyrA-Ala-Ala-Phe-Val-S8-Phe-Trp-Gln-NH2] | 5
Ac-[αAllylPro]DA[B5(4)]DDAAFV[S8][1Nal]WQ-NH2 (staple 1-4, 4-11; also: later-eluting HPLC staple isomer, Stapled (stitched) peptide) [I-276: Ac-PL3-Asp-Ala-B5-Asp-Asp-Ala-Ala-Phe-Val-S8-1NapA-Trp-Gln-NH2] | 3.43
Ac-[αAllylPro]DA[B5(4)]DDAA[Phe(3-F)]V[S8]FWQ-NH2 (staple 1-4, 4-11; also: staple isomer composition, later HPLC peak, Stapled (stitched) peptide) [I-265: Ac-PL3-Asp-Ala-B5-Asp-Asp-Ala-Ala-3FF-Val-S8-Phe-Trp-Gln-NH2] | 3.76
XDAXDDAAFVXFWA (not fully specified; N-terminal Ac; PL3 at 1, B5 at 4, S8 at 11 (olefin-metathesis staples 1-4 and 4-11); C-terminal amide, Stapled (stitched) peptide) [I-292: Ac-PL3-Asp-Ala-B5-Asp-Asp-Ala-Ala-Phe-Val-S8-Phe-Trp-Ala-NH2] | 1.87
XDAXDDAAFVXFWA (not fully specified; N-terminal Ac; PL3 at 1, B5 at 4, S8 at 11 (olefin-metathesis staples 1-4 and 4-11); C-terminal amide, Stapled (stitched) peptide) [I-291: Ac-PL3-Asp-Ala-B5-Asp-Asp-Ala-Ala-Phe-Val-S8-Phe-Trp-Ala-NH2] | 3.13
XDAXDDAAFAXFWA (not fully specified; N-terminal Ac; PL3 at 1, B5 at 4, S8 at 11 (olefin-metathesis staples 1-4 and 4-11); C-terminal amide, Stapled (stitched) peptide) [I-286: Ac-PL3-Asp-Ala-B5-Asp-Asp-Ala-Ala-Phe-Ala-S8-Phe-Trp-Ala-NH2] | 4.48
XDAXDDAAFVXHWQ (not fully specified; N-terminal Ac; PL3 at 1, B5 at 4, S8 at 11 (olefin-metathesis staples 1-4 and 4-11); C-terminal amide, Stapled (stitched) peptide) [I-285: Ac-PL3-Asp-Ala-B5-Asp-Asp-Ala-Ala-Phe-Val-S8-His-Trp-Gln-NH2] | 5

— US20240116985A1 (published 2024)
